In article PMC11609306, “Phosphorylation determines the glucose metabolism reprogramming and tumor-promoting activity of sine oculis homeobox 1” (Signal Transduction and Targeted Therapy, 2024):

Experiments:
His-tagged ERK1 = molecular target: T1, His-tagged ERK1 (UniProt P27361 1-379); assay: pull-down; GST pull-down: purified GST-SIX1 fusion protein with purified His-tagged ERK1/2; details: both partners purified
T1 construct: Extracellular signal-regulated protein kinase 1 (ERK1); Built in pET28a; also called His-tagged ERK1/2; source: E. coli BL21, purified (His-Sepharose beads)

His-tagged ERK2 = molecular target: T2, His-tagged ERK2 (UniProt P28482 1-360); assay: as above; details: both partners purified
T2 construct: Extracellular signal-regulated protein kinase 2 (ERK2); Built in pET28a; also called His-tagged ERK1/2; source: E. coli BL21, purified (His-Sepharose beads)
T2 sequence (P28482 whole entry): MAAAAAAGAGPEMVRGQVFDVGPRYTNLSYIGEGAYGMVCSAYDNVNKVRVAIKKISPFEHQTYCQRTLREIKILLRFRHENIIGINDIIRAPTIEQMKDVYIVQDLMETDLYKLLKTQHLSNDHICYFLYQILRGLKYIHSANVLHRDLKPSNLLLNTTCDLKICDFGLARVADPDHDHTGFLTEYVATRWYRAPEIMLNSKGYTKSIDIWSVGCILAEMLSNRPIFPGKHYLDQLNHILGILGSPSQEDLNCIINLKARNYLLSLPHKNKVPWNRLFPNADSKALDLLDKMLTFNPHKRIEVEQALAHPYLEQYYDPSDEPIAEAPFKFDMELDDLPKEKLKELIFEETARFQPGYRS

T1 sequence (P27361 whole entry, the tested form may be a part): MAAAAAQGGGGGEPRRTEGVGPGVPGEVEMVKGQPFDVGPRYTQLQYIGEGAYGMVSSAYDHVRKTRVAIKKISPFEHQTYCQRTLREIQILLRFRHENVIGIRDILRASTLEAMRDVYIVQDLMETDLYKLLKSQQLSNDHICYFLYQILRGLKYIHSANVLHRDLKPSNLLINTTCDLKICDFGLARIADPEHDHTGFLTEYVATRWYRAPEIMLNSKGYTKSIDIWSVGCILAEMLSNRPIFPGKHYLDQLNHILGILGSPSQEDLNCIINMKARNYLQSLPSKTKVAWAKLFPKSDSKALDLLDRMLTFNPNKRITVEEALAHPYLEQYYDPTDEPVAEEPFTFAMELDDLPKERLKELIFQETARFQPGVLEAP

B1: GST-SIX1 fusion protein (natural protein, human, UniProt Q15475 1-284, looked up)
chain: MSMLPSFGFTQEQVACVCEVLQQGGNLERLGRFLWSLPACDHLHKNESVLKAKAVVAFHRGNFRELYKILESHQFSPHNHPKLQQLWLKAHYVEAEKLRGRPLGAVGKYRVRRKFPLPRTIWDGEETSYCFKEKSRGVLREWYAHNPYPSPREKRELAEATGLTTTQVSNWFKNRRQRDRAAEAKERENTENNNSSSNKQNQLSPLEGGKPLMSSSEEEFSPPQSPDQNSVLLLQGNMGHARSSNYSLPGLTASQPSHGLQTHQHQLQDSLLGPLTSSLVDLGS
notes: Sine oculis homeobox 1 (SIX1), human; Built in pGEX-KG; source: E. coli BL21, purified (glutathione-Sepharose 4B)
binding result (His-tagged ERK1): binds | binding result (His-tagged ERK2): binds
